Reference: patent CN117368459A (INST MILITARY MEDICINE ACADEMY MILITARY SCIENCES PLA, dated 2024)

B1: Nluc-chC25抗体 (antibody, human IgG1)
light: NIVLTQSPVSLAVSLGQRATISCRASESVDSYGNSFMHWYQQKPGQPPKLLIYIASNLESGVPARFSGGGSRTDFTLTIDPVEADDAATYYCQQNYEDPWTFGGGTKLEIKRADAAPSVFIFPPSDEQLKSGTASVVCLLNNFYPREAKVQWKVDNALQSGNSQESVTEQDSKDSTYSLSSTLTLSKADYEKHKVYACEVTHQGLSSPVTKSFNRGEC
heavy: not shown
notes: also called Nluc-chC25重组抗体; Nluc标记重组抗体
B2: HRP-chC25抗体 (antibody, human IgG1)
light: B1 light
heavy: not shown
notes: also called HRP标记重组抗体; HRP-2C5

Biological target: 新冠病毒S1-RBD蛋白 (新冠病毒 (SARS-CoV-2), UniProt P0DTC2 319-541)
Assay: […] (BLI), […], antibody 118 nM to 1.88 nM, 1:1 model

Binder | Kd
B1 | 15.1 pM
B2 | 37.5 pM
